These results are taken from patent US20250154283A1 (published 2025).

Substitutions are numbered along the chain they refer to.

Assay [1] concerns the target T1, VWF in human plasma (human, UniProt P04275 764-2813).
T1 construct: Endogenous VWF in donor plasma, not purified; multimeric; also called VWF in plasma; VWF in platelet rich plasma
Put plainly: collagen type III binding ELISA; human plasma (5 donors) 17 h 37 °C with 600 nM antibody; VWF bound to collagen relative to untreated plasma; ligand collagen type III. Background: In an ELISA, binding on a coated surface is turned into a signal by an enzyme label.
Procedure: Following incubation, collagen binding was determined relative to untreated plasma.

Assay [2] deals with T2, His-StrepTagII-HRV3C-human VWF-CK-HA-tag (human).
T2 construct: it begins with the VWF signal peptide, whose limits were marked only by underlining that is lost in the text, so it was not cut off; The CK domain forms disulfide-linked homodimers (CK dimer); also called recombinant human CK domain; Human CK
T2 chain: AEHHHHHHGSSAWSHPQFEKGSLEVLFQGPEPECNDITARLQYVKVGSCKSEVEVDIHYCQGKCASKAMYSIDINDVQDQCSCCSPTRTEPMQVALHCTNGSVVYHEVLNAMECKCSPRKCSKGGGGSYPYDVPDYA
Kind of assay: solution-phase equilibrium binding, free antibody by ELISA; apparent Kd; pH 5.5; mean ± SD, n=2.
Procedure: (§1) Following incubation for 30 min at room temperature to establish equilibrium, unbound antibody was quantified by ELISA using the immobilized human CK domain for capture and HRP-conjugated goat anti-human IgG Fc antibody for detection.
(§2) Following a single wash of the plate with 200 μL of wash buffer (TBS containing 0.05% (v/v) Tween-20 and 5 mM CaCl₂), the plate was blocked by incubation with 200 μL blocking buffer (TBS containing 5 mM CaCl₂ and 1% (w/w) BSA) for 1 hour at room temperature. […] Incubation lasted 3 min and was followed by 5-min incubation with 100 μL HRP-conjugated goat anti-human IgG Fc antibody for detection (1 mg/mL stock diluted 1:20,000 in blocking buffer). Before and after addition of a detection antibody, the plate was washed 5 times with 200 μL wash buffer. A chromogenic horseradish peroxidase (HRP) substrate (100 μL) was then added and following color development for 3 min, 100 μL ELISA stop solution were added to quench the reaction. Absorbance was measured at 450 nm with subtraction of the absorbance at 620 nm.
(§3) The standard curve prepared with free antibody was fitted to a Sigmoidal four-parameter logistic (4PL) model.

The target in assay [3] is T3, His-StrepTagII-HRV3C-cyno VWF-CK-HA-tag (cynomolgus monkey).
T3 construct: it begins with the VWF signal peptide, whose limits were marked only by underlining that is lost in the text, so it was not cut off; The CK domain forms disulfide-linked homodimers; also called recombinant cyno CK domain; Cyno CK
T3 chain: T2 chain with N35S, A95P, E113Q, K115E
The assay is described as above.
Procedure: as §1, §2, §3

The target in assay [4] is T1, VWF in human plasma. Kind of assay: flow cytometry, FITC anti-VWF on platelets; human PRP (2 donors), 0.5 mg/ml ristocetin, 600 nM antibody; relative to the same plasma without antibody; receptor platelet gp1b.
Procedure: PRP was prepared by centrifuging the blood at 250 g for 15 min. […] Sample analysis was performed on a flow cytometer. Using forward (FSC) and sideward (SSC) scatter pattern, a gate was placed on the platelets.
The target of assay [5] is T1, VWF in human plasma. Kind of assay: VWF:FVIIIB enzyme immunoassay; human plasma (5 donors) 17 h 37 °C with 600 nM antibody; FVIII bound to captured VWF relative to untreated plasma; ligand FVIII.
The target of the next assay is T4, human plasma-derived VWF (human, UniProt P04275 764-2813).
T4 construct: multimeric; also called pd-VWF; Human VWF
Kind of assay: solution-phase equilibrium binding, free antibody by ELISA; apparent Kd; pH 7.4; mean ± SD, n=2.

Assay [6] addresses T2, His-StrepTagII-HRV3C-human VWF-CK-HA-tag. The description is as above.
Procedure: as §1, §2, §3
For assay [7], the target named is T3, His-StrepTagII-HRV3C-cyno VWF-CK-HA-tag. Described as above.
Procedure: as §1, §2, §3
Assay [8] addresses T1, VWF in human plasma. Put plainly: VWF:FVIIIB enzyme immunoassay; human plasma (5 donors) 17 h 37 °C with 200 nM antibody; FVIII bound to captured VWF relative to untreated plasma; ligand FVIII.

Procedure for human plasma-derived VWF: as §1, §2, §3

B1: Lib1_P1_A6 OA (antibody, human IgG4 S228P, kappa, F234A L235A)
heavy: QVQLVQSGAEVKKPGASVKVSCKVSGSTFSNYAIHWVRQAPGKGLEWMGGIVPLSGTAIYAQKFQGRVTMTEDTSTDTAYMELSSLKSEDTAVYYCARDQGESSGWYAIYYGMDVWGQGTTVTVSSASTKGPSVFPLAPCSRSTSESTAALGCLVKDYFPEPVTVSWNSGALTSGVHTFPAVLQSSGLYSLSSVVTVPSSSLGTKTYTCNVDHKPSNTKVDKRVESKYGPPCPPCPAPEAAGGPSVFLFPPKPKDTLMISRTPEVTCVVVDVSQEDPEVQFNWYVDGVEVHNAKTKPREEQFNSTYRVVSVLTVLHQDWLNGKEYKCKVSNKGLPSSIEKTISKAKGQPREPQVYTLPPSQEEMTKNQVSLSCAVKGFYPSDIAVEWESNGQPENNYKTTPPVLDSDGSFFLVSRLTVDKSRWQEGNVFSCSVMHEALHNHYTQKSLSLSLG
chain: ESKYGPPCPPCPAPEAAGGPSVFLFPPKPKDTLMISRTPEVTCVVVDVSQEDPEVQFNWYVDGVEVHNAKTKPREEQFNSTYRVVSVLTVLHQDWLNGKEYKCKVSNKGLPSSIEKTISKAKGQPREPQVYTLPPSQEEMTKNQVSLWCLVKGFYPSDIAVEWESNGQPENNYKTTPPVLDSDGSFFLYSRLTVDKSRWQEGNVFSCSVMHEALHNHYTQKSLSLSLG
light: DIQMTQSPSSVSASVGDRVTITCRASQGIGTWLAWYQQKPGKAPKLLIYGSSSRASGVPSRFSGSGSGTDFTLTISSLQPEDFANYYCQQSYGKPTFGGGTKVEIKRTVAAPSVFIFPPSDEQLKSGTASVVCLLNNFYPREAKVQWKVDNALQSGNSQESVTEQDSKDSTYSLSSTLTLSKADYEKHKVYACEVTHQGLSSPVTKSFNRGEC
notes: also called monovalent (one-arm) Lib1_P1_A6
For B1, the “Collagen binding (% control)” value with VWF in human plasma [1] is 103 % control. The Kd stood at 8.2 nM in assay [2]; 13 nM in assay [3]; 2.7 nM with human plasma-derived VWF; 2.7 nM in assay [6]; 3.4 nM in assay [7]. Further, in the assay with VWF in human plasma [4], the “Platelet binding (% control)” value amounted to 69.2 % control. The entries for the “VWF:FVIII level (% of control)” value with VWF in human plasma [5] and with VWF in human plasma [8] were 88.6 % of control and 89.7 % of control, respectively.
